The record followed here is the DeepSol protein solubility set.

This data set can be described thus: soluble on expression in E. coli; label from the status in PepcDB or PDB records.
For “MGSFPNFGAFILRAQEKDGRTCINGLPVASPAKQMLGRFPYLQSLQHDNLSVYLHFSETVIARDLVIVVMEHYTMNLEDILKTGNLKDESLNNNFYSEISSALDYLHTRNIVHGFLHLNSIYITDRKNQKLSVKLSGYGLPFLTNYGKDTASSIKFGAFLAPERILNDEDSLFAATYQSDVWELGFIILQIYLGISLEAEVTETEYLEILNKYYTDDQEKLSTVMEDLIQLLADKKRLPYHKKCEWLEAIIRKCLQMCCSKRCSITEVAAEIEININGVKNNNNKYEYKVKTVEEMRAAVRKEVADNNDGFEKLSVENSFYLWKTCGSTPEIILLKKGIIQNHAPISSYPTVRFDDFLRLDSGVDSQSTFEYGVFDLPSKKTLTRKETGQRVSARMFHKIGILEDKDLLNGNILYETASNMLTVDHLLNASAVFGISSIISRLTNIGVIPTQRADVWCTLLDINETKWRDYLNLDVLASHSSDRQLEVDIPRCHQYDSYMTTPAIQESLRKVLKGWQIVTESQHFVYWQGCDSLATPFLLANMSKPHVAFACFKEFTYRYCHKFYLKDNSEVIKEYLGIFYHLVAYTDPVLYKHLKINGFDAELFAIPWFLTCFAHELPLSKLVLLWDETMMHGNAFPLMIALAMLNRLRDKLLAVNFNEMIIIIHDQPDLSIDEIIKNSRGYEKLIPPSCTFRAHASPWKGTSLSLQQLSSIHCPRMSSEELIWRIERKMVYVLDTRQESEFQSERFSDSFNHPNNNHEADIDWLRFLPGIVCSELPKCFVYGKNDKEAAERLTEAYVMKGVPYICLLHDHFEAVRNRDSVVVKP”, the “soluble on expression in E. coli” value is recorded as “not soluble”. As for “MSLIITRTPLRITFVGGGTDLPDFYTRHGGSVVSAAINRYIYIIVNKKFDSKIRVSYSRTEIVDKVDEIRHPTVREALRLLELDGGIEILSISDVPSQGTGLGSSSSFLVGLLNALHAYKSEYVSNETLAEEAVKIEREILREAGGKQDQYMAAYGGIDLLQFFQNGEVRVKPIPLNTERLKYLRDNTALLYTGVERSSTDIHTDQISKIDDHIQEYLEMKKLAEEFAVKLYASDIKELGEIMDRNWMLKRKLSGKITNDLIDRLYIRAKELGAYGGKLIGAGGGGFLLFFIDHNKRENLKELGLRQMDYDFDFEGSRIIYYQDREGHHHHHH”, the entry is “soluble”; as for “MVSVNENALPLVERMIERAELLNVEVQELENGTTVIDCGVEAAGGFEAGLLFSEVCMGGLATVELTEFEHDGLCLPAVQVTTDHPAVSTLAAQKAGWQVQVGDYFAMGSGPARALALKPKETYEEIDYEDDADVAILCLESSELPDEDVAEHVADECGVDPENLYLLVAPTASIVGSVQVSARVVETGLYKLLEVLEYDVTRVKYATGTAPIAPVADDDGEAMGRTNDCILYGGTVYLYVEGDDELPEVVEELPSEASEDYGKPFMKIFEEADYDFYKIDPGVFAPARVVVNDLSTGKTYTAGEINVDVLKESFSL”, “soluble”; as for “MIETTAALAEACTELAKSEFITIDTEFLRETTFWPELCLVQMASPTLEVLVDPLAKGIDLTPMFELMANPNVVKVFHAARQDIEIIYHLGGLIPHPIFDTQVAAMVCGFGDSISYDQLVQKIKNVQIDKSSRFTDWSRRPLTEKQLDYALADVTHLRDVYLSLKAQLEREGRSLWLTEEMNILESRDTYDMHPDDAWLRLKSRLRKPTELAILKFVAAWREREARSRNVPRSRVLKDDGIFEIAQQQPKDAEALSRLRTIPKGWERSASGTAIIETVNAALALPKEEMPKAPRHSHAPEGSGAAVELLKVLLKLTADKHGVAAKVIANSDDLDKIASEGENATVAALTGWRRELFGDVALKLINGEVALRFAGKKVEAVEVEAAASES”, “not soluble”.

For “MGSDKIHHHHHHMTIALTGGGTGGHLAIVRCLLESAIKKNIECVYIGSQNGQDKAWFENEVRFKEKFFLSSKGVVNQSKFDKISSLLHTLKLSKDCREIFKKYHIQAVFSVGGYSAAPASFAALFSHLPLFIHEQNSKSGSLNMLLKPFATKFFSAFEKEISPYPVADKFFDNARIRKELKNIIFLGGSQGAQFINELALNLAPKLQEQNIKIIHQCGKNDFEKCKKHYQSLNIQADIFDFSLNLEEKMKNADLAISRAGASTLFELCANTLPTIFIPYPYAAKNHQYFNAKFLQDQALCQIFMQNSINLDEFFKSILKLNLENISTRLQNITQKNGADMLIQKALFDNLTFIR”, the “soluble on expression in E. coli” value was “not soluble”.

For “MSLDEILKQEMQKELTTRILPYWMERMVDQENGGFYGRITGQEELMPRADKGAILNARILWTYSAAYRLLGREEYKEMANRAKRYLIDHFYDSEFGGVYWSLNYRGEPLDTKKQIYAIGFAIYGLSEFHRATGDPEALMYAVRLFNDIESHSFDGLKNGYCEALTREWNEIADMRLSEKDANERKTMNTHLHILEPYTNLYRVWKDARLERQLYNLIGLFTEKILDKDTSHLQLFFDNDWQSKYPVVSYGHDIEASWLLHEAARVLGDAGLIAEIEPVVKKIAAAASEGLTSDGGMIYEKNLTTGHIDGDYHWWVQAETVVGYYNLFRYFGDRGALQHSIDCWEFIKRHLTDDVHGEWFWSLRADGSLNRDDDKAGFWKCPYHNGRMCIELLGEGHHHHHH”, the “soluble on expression in E. coli” value was “soluble”.

As for “MAHHHHHHMKNVKVELDGKVYTILYEPKKVKFSDLDPLKIMFHSNHVKHSGNSVIRYLVKLTSRDISKMDYVVRHVDISYDRPLKYEDSYKIIGGITSYGSTSLRITLFGTNSSSKNGCSSNLGVKNILRNGACAHVDEAAKPEEGHEKASSSGEFKSEHSEVATRRDPNKKATKSDHHVEKLLAKYKEDNADAVIKLCRNKMNEIASQKHCINYFTAHYTLVRVNKEGAKEPIQEKYKNEFPPIEVEKLKELVSVFC”, the “soluble on expression in E. coli” value was “not soluble”.

With “MTLTQIHALLAVLEYGGFTEASKRLYMTQSAVSQAISALEEELGVDILIRERRKEIELTAAGSRIVRHLRAIQRDVNAVKEIAEQEKKNPARTLRIGCFPSACACILPGVIRYFESHHPNVKIIPYEENSTAIIDSLQDGSIDAGFVPFPVNGMYCVPIYRDKFTVVVPENHPLAANSTVTVEELMDEPLIVSKGRYELSIMALFKEKGIEPIFKYEFNHPDTALNFIRQGLGIALLPELTLKATTGKLCSVALEPTFYRQISLLAKEPPVEGSPLFLLQKCMETLTDEGLL”, the “soluble on expression in E. coli” value is “not soluble”.

For “MGSDKIHHHHHHMMAQFEYSTLAHPQDIQQLEHILEQCFISALGGEEAYINMIGVENFRIIRRLEQVAGGLATLDMGQWWGGQRVPMTGIAVVGIAPEYRGSGAAIALMQHTLKELYDRGIAISALYPAVQSLYRKVGYEQGGSWCIWEIATQNIQVREQPLPLELVASINHEVFHELYQQQARQTHGYLDRHPAIWERIIQPNDKEIVYTYLIGTKDQPQGYIIFTQERTNNGEILFVKDWVLTTVAAAQTFWSFLASHRSQIQQVRWKSSAIDSLTLLLPEQTAKIQTTSRWLLRIIDVVKALELRGYPPGIQAELHLEIQDNLLTENNGKFILSVANGRGEVTKGGKGELQLDIRELAPLYTSLFTPYHLQIAGKLNGTETAILTATQIFAGASPWMADFF”, the “soluble on expression in E. coli” value was “not soluble”. For “MLLSNEEFLKKLTDLLQTHQSKGTGSVYLSQKCNPVDEGEGSSASVLIRAKSGAAEKISTVVELDYFTDFFQSYAEVCKGQIVGLKKRDRK” the value was “soluble”.

In the case of “MAHHHHHHMVSFSLIIYTSLRLAHACDARNCTLQQLGRQLEAVVTVCDESSSTTTTESTSERANNASSAADATRTGQGADAAQQVHSTTQAKRASLARDSDFKSSSEIAAFSVLRAWCPPPTARILILGMGGNSMAHALRVVLGAEALIEVVEVEPAVVVSCMQMGTLHESDTKTKVHLQDADQCLATLPPTTYDFIYMDIFEPIQATMRNLHPWVLATRTLLKPGGLLVMNDHHLPSAAGVAPYAKVFGEGNVQAVNLRGWSESIVVCVAPGDAATDKYSLDVSKTHADIAFNIYETLVPGWLPHFSWLVKAKTYRHEGVRCRLWTS”, the “soluble on expression in E. coli” value was “soluble”. Consider “MHRDSCPLDCKVYVGNLGNNGNKTELERAFGYYGPLRSVWVARNPPGFAFVEFEDPRDAADAVRELDGRTLCGCRVRVELSNGEKRSRNRGPPPSWGRRPRDDYRRRSPPPRRRSPRRRSFSRSRSRSLSRDRRRERSLSRERNHKPSRSFSRSRSRSRSNERK”, for which the “soluble on expression in E. coli” value is recorded as “soluble”. As for “MSLYDPAEKYFNCTDIQRAFFEAGIKLGAIFHQYTGIPVNSENASMAEEFIERSTMIQPFVENVRISINNVKRSSGTYSYSSLNEKMLHAEVLINYNGKKVLGVLNYDEGLDYPVMYAKEVLEGHHHHHH”, the entry is “soluble”. On to “MSLKARFLLLAALLSGVAGAYTVKKGDTLYSLARGSGLTVDALMRLNGLSTPELRVGQVIKLPGEGAATPATPAPAAPTPATPAPAAPAPAPAVPTKLPTVATAANVLKLPGVTITAPKALKMGDGFALRLSGEQAANVTVRFPSELGEDVRQPNEELRPLWSSGQYIVPGRVVLGKTTPVIYEVRLGGDVVRGQIPVGDLGQRVQHLNLPPSISKVLQDPAREAEDAAVEQAYQRRTPQQWQQPFASALASGKATSSSFGQPRTYVAGGKVAYHYGTDYPARSGTAVLAINDGTVVIAGRYPVRGGLVVIDHGAGVVSLYFHQSKVTAKVGQQIKRGQKVGEVGSTGLSAGPHLHLEVRVRGEGTNPAGWMGKLWPEGHHHHHH”, for which the “soluble on expression in E. coli” value was “not soluble”.

“MGSDKIHHHHHHMLEGKVAVVTGGGQGIGAAIAQLFAENGMKVVIAEIDEEAGVEREEMLRERGLDVTFVKTDVADENSVKNMVRKTVEIYGGVDVLVNNAAVMSVKSIFERPLEEWERVIRVNLTGPYICSRYCAEEMIKRGGGVIINIASTRAFQSEPDTEPYSASKGGLVALTHSLAVSLSRYHIRVVSISPGWIETSEWKKKSLRKKPDLRPIDHEQHPAGRVGNPLDIAHLCVFLADDEKAGFITGTNFIVDGGMTVKMIYEE”: the “soluble on expression in E. coli” value is on record as “not soluble”. As for “MESTAPNAPTEEAPEPTPFVFEFKNNHIKLIELHVYTDSMEILLIGNDGNRYEVEIQEYPGEACIEQISLNRVLVQKKECTSMYPSAPIAIVTLYSILRQPGVKVDCFYYRILNQYFVRDKNNKTEHAKWDERSASLTKMLKAMMRALMKKLEVEVFKIVYNGKEEEVMCLLPYFEPGYLRRICLFNPLYVSPTVIDNIITTEQWKQAKELNTMTGEPVAFPVESHAHFESLRIRIPELKQIDVILLVLKYLNQKTPKDNEIGVQNVSELFDFMWGSMGIPHENDPETIRYTWKSGTYNLYAEVTKNGVRFTSETRQA”, the “soluble on expression in E. coli” value is listed as “not soluble”. As to “GSMDCEVNNGSSLRDECITNLLVFGFLQSCSDNSFRRELDALGHELPVLAPQWEGYDELQTDGNRSSHSRLGRIEADSESQEDIIRNIARHLAQVGDSMDRSIPPGLVNGLALQLRNTSRSEEDRNRDLATALEQLLQAYPRDMEKEKTMLVLALLLAKKVASHTPSLLRDVFHTTVNFINQNLRTYVRSLARNGMD”, the “soluble on expression in E. coli” value is reported as “soluble”.

Consider “MKFTVGNGQNQHKGVNDGFSYEIWLDNTGGNGSMTLGSGATFKAEWNAAVNRGNFLARRGLDFGSQKKATDYDYIGLDYAATYKQTASASGNSRLCVYGWFQNRGLNGVPLVEYYIIEDWVDWVPDAQGKMVTIDGAQYKIFQMDHTGPTINGGSETFKQYFSVRQQKRTSGHITVSDHFKEWAKQGWGIGNLYEVALNAEGWQSSGVADVTLLDVYTTPKGSSPALEHHHHHH”, for which the “soluble on expression in E. coli” value is given as “soluble”.

As for “MAHHHHHHMILDLFDLCATPYAKRRSHLHSFMSELEDRLFRAEMALTQRRRSAVSPKEKRALGAVRPINVVVQEVLRETPILCFDEFQTFDVAHAALLAAFFSEAFREGLFFITTSNRPPEDLCRVSASFNAFLPVLRQHCHVVHCADIRDYRVKEAVERHHQLIFLHPNTKTNVERCCGVSSMLSGLVAESLHGSRRTHCGTTAAAS”, the “soluble on expression in E. coli” value is on record as “soluble”.
